Results as given in paper PMC7318136.

Columns and labels:
Experiment in all cases: NMR
Settings in all cases: 300 K; not stated; 20 mM sodium phosphate; phosphoric acid (20 %) added for lower pH, NaOH (1 M) for higher pH; samples dialysed overnight; folded isolated PsbO-β, 9-14 mg/mL, free of PSII partners
[1] = molecular target: Glu74 (UniProt position 100, …)
[2] = molecular target: Glu114 (UniProt position 140, …)
[3] = molecular target: Glu98 (UniProt position 124, …)
[4] = molecular target: Asp99 (UniProt position 125, …)
[5] = molecular target: Glu64 (UniProt position 90, …)
[6] = molecular target: Glu216 (UniProt position 242, …)
[7] = molecular target: Glu244 (UniProt position 270, FYASIEPA---)
[8] = molecular target: Glu232 (UniProt position 258, …)
[9] = molecular target: Asp205 (UniProt position 231, …)
[10] = molecular target: Asp24 (UniProt position 50, …)
[11] = molecular target: Glu84 (UniProt position 110, …)
[12] = molecular target: Glu218 (UniProt position 244, …)
[13] = molecular target: Glu210 (UniProt position 236, …)
[14] = molecular target: Asp33 (UniProt position 59, …)
[15] = molecular target: Glu54 (UniProt position 80, …)
[16] = molecular target: Asp23 (UniProt position 49, …)
[17] = molecular target: Asp79 (UniProt position 105, …)
[18] = molecular target: Asp141 (UniProt position 167, …)
[19] = molecular target: Glu145 (UniProt position 171, …)
[20] = molecular target: Asp90 (UniProt position 116, …)
[21] = molecular target: Asp102 (UniProt position 128, …)

B1: PsbO-β (β-barrel construct of photosystem II manganese-stabilizing protein PsbO) (Thermosynechococcus elongatus; deletion of 1-15; deletion of 55-63 (replaced … (protein)
chain: MNHKCPTLDDTARGAYPIDSSQTYRIARLCLQPTTFLVKENGEFVPTKLVTRETTSLDQIQGELKVNSDGSLTFVEEDGIDFQPVTVQMAGGERIPLLFTVKNLVASTQPNVTSITTSTDFKGEFNVNGTKGQISLNVAKVDGRTGEIAGTFESEQLSNGHEVKIQGVFYASIEPA
[1]
  pKa: 3.37±0.05
[2]
  pKa: 3.81±0.08
[3]
  pKa: 4.99±0.04
[4]
  pKa: <5
[5]
  pKa: 4.17±0.04
[6]
  pKa: 3.91±0.10
[7]
  pKa: 4.97±0.08
[8]
  pKa: 4.20±0.10
[9]
  pKa: 3.45±0.09
[10]
  pKa: 3.06±0.03
[11]
  pKa: 4.64±0.07
[12]
  pKa: 5.13±0.07
[13]
  pKa: 2.66±0.12
[14]
  pKa: 3.47±0.05
[15]
  pKa: 4.47±0.06
[16]
  pKa: 3.41±0.05
[17]
  pKa: <2.5
[18]
  pKa: 4.89±0.03
[19]
  pKa: 4.52±0.04
[20]
  pKa: 1.56±0.14
[21]
  pKa: >7
